Self-cleavage data for 32 variants are collected here from the RNAGym collection of RNA variant scans (doi:10.7554/elife.80360).

B1: HDV Ribozyme (parent)
chain: GGCCGGCAUGGUCCCAGCCUCCUCGCUGGCGCCGGCUGGGCAACAUUCCGAGGGGACCGUCCCCUCGGUAAUGGCGAAUGGGACCCA

The series covers variants of B1. Put plainly: self-cleavage, relative activity (ratio to wild type); higher = more cleavage; co-transcriptional.
For GGCCGGCAUGUUCCCAGCCUCCUCGCUGGCGCCGGCUGGGCAACAUUCCGAGGGGACCGUCCCCUCGGUAAUGGCGAAUUGGACCCA [G11U G80U], the self-cleavage turned out to be 0.113.

Turning to GGCCGGCAUGUUCCCAGCCUCCUCGCUGGCGCCGGCUGGGCAACAUUCCGAGGGGACCGUCCCCUCGGUAAUGGCGAAUCGGACCCA [G11U G80C], the self-cleavage came to 0.

For the variant GGCCGGCAUGUUCCCAGCCUCCUCGCUGGCGCCGGCUGGGCAACAUUCCGAGGGGACCGUCCGCUCGGUAAUGGCGAAUGGGACCCA [G11U C63G], the self-cleavage was 0.248.

Take GGCCGGCAUGUUCCCAGCCUCCUCGCUGGCGCCGGAUGGGCAACAUUCCGAGGGGACCGUCCCCUCGGUAAUGGCGAAUGGGACCCA [G11U C36A]: the self-cleavage worked out at 0.0755.

Consider GGCCGGCAUGUUCCCAGCCUCCACGCUGGCGCCGGCUGGGCAACAUUCCGAGGGGACCGUCCCCUCGGUAAUGGCGAAUGGGACCCA [G11U U23A], for which the self-cleavage was found to be 0.437.

For GGCCGGCAUGUUCCCAGCCUCCUCGCUGGCGCCGGCUGGGCAACAUUCCGAGGGGACCGUCCCCUCGGUAAUGGCGAAUGCGACCCA [G11U G81C], the self-cleavage was 0.126.

For the variant GGCCGGCAUGUUCCCAGCCUCCUCGCUGGCGCCGGCUGUGCAACAUUCCGAGGGGACCGUCCCCUCGGUAAUGGCGAAUGGGACCCA [G11U G39U], the self-cleavage is 0.0936.

Take GGCCGGCAUGUUCCCAGCCUCCUCGCUGGCGCCGGCUGGGCAACAUUCCGAGGGGACCGUCCCCUCUGUAAUGGCGAAUGGGACCCA [G11U G67U]: the self-cleavage was 0.168.

Regarding GGCCGGCAUGUUCCCAGCCUCCUCGCUGGCGCCGGCUGGGCAACAUUCCGAGAGGACCGUCCCCUCGGUAAUGGCGAAUGGGACCCA [G11U G53A], the self-cleavage stood at 0.427.

In the case of GGCCGGCAUGUUCCCAGCCUCCUCGCUGGCGCCGGCUGGGCAAGAUUCCGAGGGGACCGUCCCCUCGGUAAUGGCGAAUGGGACCCA [G11U C44G], the self-cleavage was determined as 0.0723.

Turning to GGCCGGCAUGUUCCCAGCCUCCUCGCUGGCGCCGGCUGGGCAAUAUUCCGAGGGGACCGUCCCCUCGGUAAUGGCGAAUGGGACCCA [G11U C44U], the self-cleavage was determined as 0.193.

Consider GGCCGGCAUGUUCCCAGCCUCCUCGCUGGCGCCGGCUGGGCAAAAUUCCGAGGGGACCGUCCCCUCGGUAAUGGCGAAUGGGACCCA [G11U C44A], for which the self-cleavage is 0.256.

Regarding GGCCGGCAUGUUCCCAGCCUCCUCGCUGGCGCCGGCUGGGCAACAUUCCGAGGGGACCGUCCCAUCGGUAAUGGCGAAUGGGACCCA [G11U C64A], the self-cleavage was 0.256.

For the variant GGCCGGCAUGUUCCCAGCCUCCUCGCUGGCGCCGGCUGGGCAACAUUCCGAGGGGACUGUCCCCUCGGUAAUGGCGAAUGGGACCCA [G11U C58U], the self-cleavage came out at 0.447.

Take GGCCGGCAUGUUCCCAGCCUCCUCGCUGGCGCCGGCUGGGCAACAUUCCGAGGGGACCGUCCCCUCGGUAAUGUCGAAUGGGACCCA [G11U G74U]: the self-cleavage turned out to be 0.1.

Consider GGCCGGCAUGUUCCCAGCCACCUCGCUGGCGCCGGCUGGGCAACAUUCCGAGGGGACCGUCCCCUCGGUAAUGGCGAAUGGGACCCA [G11U U20A], for which the self-cleavage worked out at 0.0252.

GGCCGGCAUGUUCCCAGCCUCCUCGCUGGCGCCUGCUGGGCAACAUUCCGAGGGGACCGUCCCCUCGGUAAUGGCGAAUGGGACCCA [G11U G34U]: the self-cleavage stood at 0.0252.

Turning to GGCCGGCAUGUUCCCAGCCUCCUCGCUGGCGCCGGCUGGGCAACAUUUCGAGGGGACCGUCCCCUCGGUAAUGGCGAAUGGGACCCA [G11U C48U], the self-cleavage was determined as 0.369.

In the case of GGCCGGCAUGUUCCCAGCCUCCUCGCUGGCGCCGGCUGGGCAACAUUCCGAGGGGACCGUCCCCUCGGUAAUGGCGAAUGGGACACA [G11U C85A], the self-cleavage was found to be 0.755.

Take GGCCGGCAUGUUCCCAGCCUCCUCGCUGGCGCCGGCUGGGCAACAUUCCGAGGGGACCGUCCCCUCGGUAAUGGCGAAUGGGACGCA [G11U C85G]: the self-cleavage was found to be 0.689.

On to GGCCGGCAUGUUCCCAGCCUCCUCGCUGGCGCCGGCUGGGCAACAUUCCGAGGGGACCGUCCCCUCGGUAAUGGCCAAUGGGACCCA [G11U G76C], for which the self-cleavage was determined as 0.532.

GGCCGGCAUGUUCCCAGCCUCCUCGCUGGCGCCGGCUCGGCAACAUUCCGAGGGGACCGUCCCCUCGGUAAUGGCGAAUGGGACCCA [G11U G38C]: the self-cleavage turned out to be 0.

As to GGCCGGCAUGUUCCCAGCCUCCUCGCUGGCGCCGGCUGGGCAACAUUCCGAGGGGAACGUCCCCUCGGUAAUGGCGAAUGGGACCCA [G11U C57A], the self-cleavage was found to be 0.447.

As to GGCCGGCAUGUUCCCAGCCUCCUCGCUGGCGCCGGCUGGGCAACAUUCCGAGGGGACCGUCCCCUCGGUAAUGGCGAAUGGUACCCA [G11U G82U], the self-cleavage is 0.138.

In the case of GGCCGGCAUGUUCCCAGCCUCCUCGCUGGCGCCGGCUGGGCAACAUUCCGAGGUGACCGUCCCCUCGGUAAUGGCGAAUGGGACCCA [G11U G54U], the self-cleavage is 0.422.

As to GGCCGGCAUGUACCCAGCCUCCUCGCUGGCGCCGGCUGGGCAACAUUCCGAGGGGACCGUCCCCUCGGUAAUGGCGAAUGGGACCCA [G11U U12A], the self-cleavage is 0.116.

As to GGCCGGCAUGUUCCCAGCCUCCUCGCUGGCGCCGGCUGGGCAACAUUCCGAGGGGACCGUCUCCUCGGUAAUGGCGAAUGGGACCCA [G11U C62U], the self-cleavage is 0.403.

Consider GGCCGGCAUGUUCCCAGCCUCCUCGCUGGCGCCGGCUGGGCAACAUUCCGAGGGGACCGUCCCCUGGGUAAUGGCGAAUGGGACCCA [G11U C66G], for which the self-cleavage came out at 0.397.

For GGCCGGCAUGUUCCCAGCCUCCUCGCUGGCGCCGGCUGGGCAACAUUCCGAGGGGACCGUCCCCUUGGUAAUGGCGAAUGGGACCCA [G11U C66U], the self-cleavage amounted to 0.249.

Take GGCCGGCAUGUUCCCAGCCUCCUCGCUGGCGCCGGCUGGGCAACAUUCCAAGGGGACCGUCCCCUCGGUAAUGGCGAAUGGGACCCA [G11U G50A]: the self-cleavage amounted to 0.415.

As to GGCCGGCAUGUUCCCAGCCUCCUCGCUGGCGCCGGCUGGGCAACAUUCCGAUGGGACCGUCCCCUCGGUAAUGGCGAAUGGGACCCA [G11U G52U], the self-cleavage amounted to 0.561.

Take GGCCGGCAUGUUCCCAGCCUCCUCGCUGGCGCCGGCUGGGCAACAUUCAGAGGGGACCGUCCCCUCGGUAAUGGCGAAUGGGACCCA [G11U C49A]: the self-cleavage came to 0.307.
